# Measurements published in article PMC9900762.
# Target: P. falciparum cytochrome c-2 (PF3D7_1311700), recombinant (P. falciparum) (UniProt Q8I6T6)
# Assay: crystal structure
substance,measurement,value
"P. falciparum cytochrome c-2 (PF3D7_1311700), recombinant (from UniProt Q8I6T6 1-159) (natural protein)",stoichiometry N,2
